Results as given in paper PMC11151819.

Molecular target: BIR3 domain of XIAP (human) (UniProt P98170)
Experiment: SEC

stoichiometry N: 2
Substance: BIR3 domain of XIAP (from UniProt P98170 241-356) (domain or fragment)
